Laboratory results published in patent US20060193821, “Aptamers to the human IL-12 cytokine family and their use as autoimmune disease therapeutics” (published 2006).
Positions count from the first letter of the chain named.

Tests used:
[1] = biological target: T1, IL-23 (human, p19/p40 heterodimer) (Homo sapiens, UniProt Q9NPF7;P29460 SEQ:20-189,SEQ:23-328); test: filter; direct binding without tRNA; conditions: tags: R&D Systems, carrier free; label: 5'-32P
Protocol: (§1) These molecules were gel purified and assayed for IL-23 binding using the dot blot assay as described above and compared to each other and to the parent molecule, ARC979. An 8 point IL-23 titration (0 nM to 300 nM, 3 fold serial dilutions) was used in the binding assay.

[2] = biological target: T1, IL-23 (human, p19/p40 heterodimer); test: filter; DPBS with Ca and Mg, 0.1 mg/mL tRNA, 30 min RT; conditions: tags: R&D Systems, carrier free; label: 32P
Protocol: The selection progress was monitored using the dot blot sandwich filter binding assay as described in Example 1A. The 5′-³²P-labeled pool RNA was refolded at 90° C. for 3 minutes and cooled to room temperature for 10 minutes. Next, pool RNA (trace concentration) was incubated with h-IL-23 DPBS plus 0.1 mg/mL tRNA for 30 minutes at room temperature and then applied to a nitrocellulose and nylon filter sandwich in a dot blot apparatus (Schleicher and Schuell). The percentage of pool RNA bound to the nitrocellulose was calculated and monitored approximately every 3 rounds with a single point screen (+/−250 nM h-IL-23). Pool KD measurements were measured using a titration of h-IL-23 protein (R&D, Minneapolis, Minn.) and the dot blot apparatus as described above.
The rRmY h-IL-23 selection was enriched for h-IL-23 binding vs. the naïve pool after 4 rounds of selection (data not shown). The selection stringency was increased and the selection was continued for 8 more rounds. […] The rGmH selection was enriched over the naïve pool binding at Round 10. […] FIG. 7 is a binding curve of rRmY and rGmH pool selection binding to h-IL-23. The pools were cloned using TOPO TA cloning kit (Invitrogen, Carlsbad, Calif.) and individual sequences were generated and tested for binding. A single point binding screen was initially performed on all crude rRmY clone transcriptions using a 1:200 dilution, +/−200 nM IL-23, plus 0.1 mg/mL competitor tRNA. […] The 10 point screen was performed using zero to 480 nM IL-23 in 3 fold serial dilutions. Binding curves were generated (KaleidaGraph v. 3.51, Synergy Software) and KDs were estimated by fitting the data to the equation: fraction RNA bound=amplitude[h-IL-23]/KD+[h-IL-23]). […] There was one group of 6 duplicate sequences and 4 pairs of 2 duplicate sequences out of the rRmY clones generated. […] Clones were also tested from 48 crude rGmH clone transcriptions at a 1:200 dilution and 0.1 mg/mL tRNA was used as competitor.

[3] = biological target: T1, IL-23 (human, p19/p40 heterodimer); test: filter; no binding detectable; conditions: tags: R&D Systems, carrier free; label: 5'-32P
From the text: Following the dRmY selection process for aptamers binding to IL-23 (described in Example 1C above) and determination of the oligonucleotide sequences, the sequences were systematically minimized to obtain shorter oligonucleotide sequences that retain the binding characteristics. On the basis of the IL-23 binding analysis described in Example 1A above and the cell based assay data described in Example 3 below, ARC489 (SEQ ID NO 91) (74mer) was chosen for further characterization. 3 minimized constructs based on clone ARC489 (SEQ ID NO 91) were designed and generated. […] Table 23 includes the binding data for the dRmY minimized aptamers.

[4] = biological target: IL-12 (human, p35/p40 heterodimer) (Homo sapiens, UniProt P29459;P29460 SEQ:57-253,SEQ:23-328); test: filter; 1X PBS, tRNA, ssDNA, BSA, 30 min RT; conditions: label: 32P
Sequence of IL-12 (human, p35/p40 heterodimer) (P29459 23-219, chain 1 of 2): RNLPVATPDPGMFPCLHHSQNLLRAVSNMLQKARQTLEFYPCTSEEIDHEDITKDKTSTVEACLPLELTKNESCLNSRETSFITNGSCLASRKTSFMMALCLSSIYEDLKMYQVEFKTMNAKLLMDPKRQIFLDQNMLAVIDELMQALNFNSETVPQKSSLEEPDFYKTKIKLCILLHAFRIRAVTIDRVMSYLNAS
Sequence of IL-12 (human, p35/p40 heterodimer) (P29460 23-328, chain 2 of 2): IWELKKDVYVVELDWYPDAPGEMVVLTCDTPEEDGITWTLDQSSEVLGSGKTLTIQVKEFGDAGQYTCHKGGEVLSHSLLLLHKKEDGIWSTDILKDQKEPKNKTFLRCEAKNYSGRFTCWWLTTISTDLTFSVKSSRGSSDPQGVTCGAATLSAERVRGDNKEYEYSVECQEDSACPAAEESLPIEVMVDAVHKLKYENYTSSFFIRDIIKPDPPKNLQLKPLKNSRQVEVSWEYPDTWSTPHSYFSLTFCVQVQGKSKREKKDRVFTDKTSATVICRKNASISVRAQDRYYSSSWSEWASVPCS

[5] = biological target: T1, IL-23 (human, p19/p40 heterodimer); test: filter; 1X PBS, tRNA, ssDNA, BSA, 30 min RT; conditions: tags: R&D Systems, carrier free; label: 32P
[6] = biological target: T2, IL-23 (mouse, p19/p40 heterodimer) (Mus musculus, UniProt Q9EQ14;P43432 SEQ:22-196,SEQ:23-335); test: filter; 1X PBS, 0.1 mg/mL BSA, 30 min RT; conditions: tags: isolated in-house; label: 32P
T2 sequence 1: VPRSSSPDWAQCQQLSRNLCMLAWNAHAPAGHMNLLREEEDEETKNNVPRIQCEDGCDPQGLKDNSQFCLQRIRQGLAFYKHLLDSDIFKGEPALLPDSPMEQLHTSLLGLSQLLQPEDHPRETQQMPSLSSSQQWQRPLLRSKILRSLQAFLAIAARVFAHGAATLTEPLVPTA
T2 sequence 2: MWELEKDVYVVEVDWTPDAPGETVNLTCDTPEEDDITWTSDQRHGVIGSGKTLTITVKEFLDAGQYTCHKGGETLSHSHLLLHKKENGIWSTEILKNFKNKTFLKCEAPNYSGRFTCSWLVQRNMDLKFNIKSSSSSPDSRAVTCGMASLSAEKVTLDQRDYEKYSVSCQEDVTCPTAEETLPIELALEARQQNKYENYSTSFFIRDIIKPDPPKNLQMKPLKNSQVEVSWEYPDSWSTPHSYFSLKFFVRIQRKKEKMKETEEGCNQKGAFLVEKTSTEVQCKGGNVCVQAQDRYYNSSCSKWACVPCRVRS
From the text: Based on visual inspection of the parent clone sequences of the mouse IL-23 rRfY aptamers described in Example 1E, and predicted RNA structures using an RNA folding program (RNAstructure), minimized constructs were designed for each of the seven binding mIL-23 clones. PCR templates for the minimized construct oligos were ordered from Integrated DNA Technologies (Coraville, Iowa). Constructs were PCR amplified, transcribed, gel purified, and tested for binding to mIL-23 using the dot blot binding assay previously described. Trace ³²P-labeled RNA was combined with mIL-23 and incubated at room temperature for 30 min in 1×PBS plus 0.1 mg/mL BSA for a final volume of 30 μL. The reaction was added to a dot blot apparatus (Schleicher and Schuell Minifold-1 Dot Blot, Acrylic). Binding curves were generated as described in previous sections. Table 33 summarizes the protein binding characterization for each rRfY minimized construct that had significant binding to mIL-23.

[7] = biological target: T1, IL-23 (human, p19/p40 heterodimer); test: filter; 0.1 mg/mL tRNA, 30 min RT; conditions: tags: R&D Systems, carrier free; label: 5'-32P
Protocol: (§2) Monitoring Progress of rRfY Selection. Dot blot binding assays were performed throughout the selections to monitor the protein binding affinity of the pools. Trace ³²P-labeled RNA was combined with a dilution series of h-IL-23 and incubated at room temperature for 30 minutes in 1×SHMCK (20 mM Hepes, 120 mM NaCl, 5 mM KCl, 1 mM MgCl₂, 1 mM CaCl₂, pH 7.4) plus 0.1 mg/mL tRNA for a final volume of 20 μL. The binding reactions were analyzed by nitrocellulose filtration using a Minifold I dot-blot, 96-well vacuum filtration manifold (Schleicher & Schuell, Keene, N.H.). A three-layer filtration medium was used, consisting (from top to bottom) of Protran nitrocellulose (Schleicher & Schuell), Hybond-P nylon (Amersham Biosciences) and GB002 gel blot paper (Schleicher & Schuell). RNA that is bound to protein is captured on the nitrocellulose filter, whereas the non-protein bound RNA is captured on the nylon filter. The gel blot paper was included simply as a supporting medium for the other filters. Following filtration, the filter layers were separated, dried and exposed on a phosphor screen (Amersham Biosciences, Piscataway, N.J.) and quantified using a Storm 860 Phosphorimager® blot imaging system (Amersham Biosciences).

[8] = biological target: T1, IL-23 (human, p19/p40 heterodimer); test: filter; 0.1 mg/mL tRNA; conditions: tags: R&D Systems, carrier free
Protocol: as §2

[9] = biological target: T1, IL-23 (human, p19/p40 heterodimer); test: cell_activity; TransAM STAT3; conditions: tags: R&D Systems, carrier free
[10] = biological target: T1, IL-23 (human, p19/p40 heterodimer); test: filter; -tRNA; competition 6 nM; conditions: tags: R&D Systems, carrier free
Protocol: as §1

T1 sequence (Q9NPF7 20-189, chain 1 of 2): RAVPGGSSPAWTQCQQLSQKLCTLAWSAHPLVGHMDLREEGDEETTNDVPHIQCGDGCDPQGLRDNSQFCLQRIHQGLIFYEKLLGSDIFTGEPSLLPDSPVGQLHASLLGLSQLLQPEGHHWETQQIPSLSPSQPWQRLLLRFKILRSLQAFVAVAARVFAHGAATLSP
T1 sequence (P29460 23-328, chain 2 of 2): as the sequence (P29460 23-328, chain 2 of 2) above

With ACAGGCAAGUAAUUGGGGAGUGCGGGCGGGGUGU (mixed, dRmY; PS between nt 9 and 10) [ARC1154] the Kd [1] was 412 nM.

B1: rRmY clone SEQ 80 (ssRNA)
RNA: GGGAGAGGAGAGAACGUUCUACAAGAUAUAAUUAAGGAUAAGUGCAAAGGAGACGCUGUCGAUCGAUCGAUCGAUG
modifications: 2'-OMe all C and U (rRmY)
With B1 the Kd [2] was 3790 nM.

GCGCCGGUGGGCGGGCACCGGGUGGAUGCGCC (mixed, 2'-deoxy A and G, 2'-OMe C and U (dRmY)) [ARC528]: no binding [3].

ACAGCGCCGGUGUUUUCAUUGGGUGGAUGCGCUGU (mixed, 2'-deoxy A and G, 2'-OMe C and U (dRmY)) [ARC529]: no binding [3].

B2: ARC489 (mixed)
RNA: GGGAGAGGAGAGAACGUUCUACAGCGCCGGUGGGCGGGCAUUGGGUGGAUGCGCUGUCGAUCGAUCGAUCGAUG
modifications: 2'-deoxy A and G, 2'-OMe C and U (dRmY)
B2 showed a Kd [4] of 17.2 nM and a Kd [5] of 4 nM.

B3: rRmY clone SEQ 83 (ssRNA)
RNA: GGGAGAGGAGAGAACGUUCUACGCAGGCUGUCGUAGACAAACGAUGAAGUCGCGCUGUCGAUCGAUCGAUCGAUG
modifications: 2'-OMe all C and U (rRmY)
Binder B3 has a Kd [2] of 8.2 nM.

B4: ARC491 (mixed)
RNA: B2 RNA with C35U, U42A
modifications: 2'-deoxy A and G, 2'-OMe C and U (dRmY)
With B4 the Kd [4] was 93 nM and the Kd [5] was 17.1 nM.

For GGGCACUCAGCCACCUUGGGCUUAAUACCUAUCGGAUGUGCCC (ssRNA, 2'-F all C and U (rRfY)) [ARC1634 minimer], the Kd [6] was 19 nM.

Binder GGGCACUCAGCCACAGCUCGGUGGCUUAAUAUCUAUGUGAACGUGCCC (ssRNA, 2'-F all C and U (rRfY)) [ARC1633 minimer] has a Kd [6] of 25 nM.

B5: ARC490 (mixed)
RNA: GGGAGAGGAGAGAACGUUCUACAGCCUUUUGGGUAAGGGGAGGGGUGCCGGUCGCUGUCGAUCGAUCGAUCGAUG
modifications: 2'-deoxy A and G, 2'-OMe C and U (dRmY)
B5 gave a Kd [4] of 37.1 nM and a Kd [5] of 26 nM.

For GGAGUACGCCGAAAGGCGCUUCCGAAAGGACGUCCGUAAGGGAUACUCC (ssRNA, 2'-F all C and U (rRfY)) [Type 1.5], the Kd [7] was 31.4 nM.

B6: B10.min4 (ssRNA)
RNA: GGAGCAUACACAAGAAGUGCUUCAUGCGGCAAACUGCAUGACGUCGAAUAGAUAUGCUCC
modifications: 2'-F all C and U (rRfY)
In the case of B6, the Kd [7] is reported as 36.4 nM.

B7: A10.min5 (ssRNA)
RNA: GGAGCAUACACAAGAAGUUUUUUGUGCUCUGAGUACUCAGCGUCCGUAAGGGAUAUGCUCC
modifications: 2'-F all C and U (rRfY)
B7 gave a Kd [7] of 57.8 nM.

GGGCACUCAGCCACAGGUGGCUUAAUACUGUAAAGACGUGCCC (ssRNA, 2'-F all C and U (rRfY)) [ARC1739 (ARC1628 minimer)] was tested, and the Kd [6] was 1 nM.

B8: F11.min2 (ssRNA)
RNA: GGACAUACACAAGAUGUGCUUGAGUUAAAUCUCAUCGUCCCCGUUUGGGGAUAUGUC
modifications: 2'-F all C and U (rRfY)
Work on B8 yielded a Kd [7] of 65 nM.

B9: rRmY clone SEQ 76 (ssRNA)
RNA: GGGAGAGGAGAGAACGUUCUACAACAAAGCAGGCUCAUAGUAAUAUGGAAGUCGCUGUCGAUCGAUCGAUCGAUG
modifications: 2'-OMe all C and U (rRmY)
Work on B9 yielded a Kd [2] of 77.2 nM.

B10: rRmY clone SEQ 88 (ssRNA)
RNA: GGGAGAGGAGAGAACGUUCUACAUAAGCAGGCUCCGAUAGUAUUCGGGAAGUCGCUGUCGAUCGAUCGAUCGAUG
modifications: 2'-OMe all C and U (rRmY)
Binder B10 has a Kd [2] of 101 nM.

B11: A10.min6 (ssRNA)
RNA: GGAGUACGCCGAAAGGCGCUCUGAGUACUCAGCGUCCGUAAGGGAUACUCC
modifications: 2'-F C,U
In the case of B11, the Kd [8] is reported as 48.3 nM and the IC50 [9] is reported as 250 nM.

In the case of GGGUACGCCGAAAGGCGCUUCCGAAAGGACGUCCGUAAGGGAUACCC (ssRNA, 2'-F C,U) [Type 1.4], the Kd [8] is reported as 185 nM and the IC50 [9] is reported as 80 nM.

With GGAGUACACAAGAAGUGCUUCCGAAAGGACGUCGAAUAGAUACUCC (ssRNA, 2'-F C,U) [B10.min5] the Kd [8] was 277 nM and the IC50 [9] was 80 nM.

B12: ARC1161 (mixed)
RNA: ACAGGCAAGUAAUUGGGGAGUGCGGGCGGGGUGU
modifications: deoxy A,G; 2'-OMe C,U; PS 19-20 [PS between 19-20; 2'-OMe C,U at 2,6,10,13,14,21,23,27,32,34; deoxy A,G at all other positions]
With B12 the Kd [10] was 55 nM.

B13: ARC1162 (mixed)
RNA: B12 RNA
modifications: deoxy A,G; 2'-OMe C,U; PS 20-21 [PS between 20-21; 2'-OMe C,U at 2,6,10,13,14,21,23,27,32,34; deoxy A,G at all other positions]
In the case of B13, the Kd [10] is reported as 47 nM.
